Assay results reported in paper PMC5543122, “Structural basis of Notch O-glucosylation and O–xylosylation by mammalian protein–O-glucosyltransferase 1 (POGLUT1)” (Nature Communications, 2017).

How the values were obtained:
[1] = biological target: Drosophila Rumi, residues 39-406 (Drosophila) (UniProt Q8T045)
[2] = biological target: human Protein O-glucosyltransferase 1 (POGLUT1), residues 29-385 (human) (UniProt Q8NBL1)
Chain of UniProt Q8NBL1 (Q8NBL1 29-385): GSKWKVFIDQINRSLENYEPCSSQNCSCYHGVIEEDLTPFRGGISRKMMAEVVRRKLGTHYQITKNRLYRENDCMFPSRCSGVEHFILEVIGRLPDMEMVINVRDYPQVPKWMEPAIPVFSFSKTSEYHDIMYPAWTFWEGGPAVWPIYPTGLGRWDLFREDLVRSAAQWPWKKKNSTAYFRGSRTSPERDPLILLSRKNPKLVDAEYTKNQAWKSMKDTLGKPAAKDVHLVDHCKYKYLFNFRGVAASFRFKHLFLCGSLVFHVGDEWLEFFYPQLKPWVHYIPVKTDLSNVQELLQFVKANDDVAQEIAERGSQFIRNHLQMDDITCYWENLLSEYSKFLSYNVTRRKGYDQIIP

Chain of UniProt Q8T045 (Q8T045 39-406): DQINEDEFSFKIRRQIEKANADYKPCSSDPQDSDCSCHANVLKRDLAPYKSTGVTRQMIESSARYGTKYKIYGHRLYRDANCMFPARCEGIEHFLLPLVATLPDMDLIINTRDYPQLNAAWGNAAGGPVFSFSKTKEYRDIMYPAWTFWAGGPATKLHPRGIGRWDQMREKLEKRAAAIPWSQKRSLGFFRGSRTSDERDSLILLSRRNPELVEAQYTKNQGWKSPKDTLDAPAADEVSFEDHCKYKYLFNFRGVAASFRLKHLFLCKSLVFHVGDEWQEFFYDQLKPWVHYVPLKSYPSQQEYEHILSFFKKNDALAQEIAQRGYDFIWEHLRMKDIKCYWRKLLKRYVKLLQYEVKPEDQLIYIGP

K M of the EGF-like domain (MBP fusion) for glucosylation, 2.5 mM UDP-glucose, coupled spectrophotometric assay, 37 °C [1] [µM]	K M of the EGF-like domain (MBP fusion) for glucosylation, 2.5 mM UDP-glucose, coupled spectrophotometric assay, 37 °C [2] [µM]	Substance
160	155	human Notch1 EGF-like domain 12 with a 4-residue C2C3 loop, MBP fusion (from UniProt P46531 452-488) (domain or fragment)
1000	1000	human Notch1 EGF-like domain 12 with a 6-residue C2C3 loop, MBP fusion (from UniProt P46531 452-488) (domain or fragment)
1000	1000	human Notch1 EGF-like domain 12 with a 7-residue C2C3 loop, MBP fusion (from UniProt P46531 452-488) (domain or fragment)
